Test results reported in patent US20220177587A1, “METHODS AND USES OF VARIANT CD80 FUSION PROTEINS AND RELATED CONSTRUCTS” (Alpine Immune Sciences, Inc., priority 2018, published 2022).

B1: variant CD80 IgV-Fc E35D/M47L (Fc fusion)
chain: VIHVTKEVKEVATLSCGHNVSVEELAQTRIYWQKDKKMVLTMMSGDLNIWPEYKNRTIFDITNNLSIVILALRPSDEGTYECVVLKYEKDAFKREHLAEVTLSVKAD
B2: variant CD80 IgV-Fc E35D/D46V/M47L (Fc fusion)
chain: VIHVTKEVKEVATLSCGHNVSVEELAQTRIYWQKDKKMVLTMMSGVLNIWPEYKNRTIFDITNNLSIVILALRPSDEGTYECVVLKYEKDAFKREHLAEVTLSVKAD
B3: variant CD80 IgV-Fc E35D/D46V/V68M (Fc fusion)
chain: VIHVTKEVKEVATLSCGHNVSVEELAQTRIYWQKDKKMVLTMMSGVMNIWPEYKNRTIFDITNNLSIMILALRPSDEGTYECVVLKYEKDAFKREHLAEVTLSVKAD
B4: variant CD80 IgV-Fc E35D/D46V/L85Q (Fc fusion)
chain: VIHVTKEVKEVATLSCGHNVSVEELAQTRIYWQKDKKMVLTMMSGVMNIWPEYKNRTIFDITNNLSIVILALRPSDEGTYECVVQKYEKDAFKREHLAEVTLSVKAD
B5: variant CD80 IgV-Fc E35D/M47V/N48K (Fc fusion)
chain: VIHVTKEVKEVATLSCGHNVSVEELAQTRIYWQKDKKMVLTMMSGDVKIWPEYKNRTIFDITNNLSIVILALRPSDEGTYECVVLKYEKDAFKREHLAEVTLSVKAD
B6: variant CD80 IgV-Fc E35D/N48K/V68M (Fc fusion)
chain: VIHVTKEVKEVATLSCGHNVSVEELAQTRIYWQKDKKMVLTMMSGDMKIWPEYKNRTIFDITNNLSIMILALRPSDEGTYECVVLKYEKDAFKREHLAEVTLSVKAD
B7: variant CD80 IgV-Fc E35D/M47V/N48K/V68M (Fc fusion)
chain: VIHVTKEVKEVATLSCGHNVSVEELAQTRIYWQKDKKMVLTMMSGDVKIWPEYKNRTIFDITNNLSIMILALRPSDEGTYECVVLKYEKDAFKREHLAEVTLSVKAD
B8: variant CD80 IgV-Fc E35D/M47V/V68M/K89N (Fc fusion)
chain: VIHVTKEVKEVATLSCGHNVSVEELAQTRIYWQKDKKMVLTMMSGDVNIWPEYKNRTIFDITNNLSIMILALRPSDEGTYECVVLKYENDAFKREHLAEVTLSVKAD
B9: CD80 V4M/L70Q/A91G/I118V/T120S/T130A/K169E ECD-Fc (Fc fusion)
chain: VIHMTKEVKEVATLSCGHNVSVEELAQTRIYWQKEKKMVLTMMSGDMNIWPEYKNRTIFDITNNLSIVIQALRPSDEGTYECVVLKYEKDGFKREHLAEVTLSVKADFPTPSISDFEVPSSNIRRIICSASGGFPEPHLSWLENGEELNAINTTVSQDPETELYAVSSELDFNMTTNHSFMCLIKYGHLRVNQTFNWNTTKQEHFPDN
B10: CD80 S44P/L70Q/A91G/T130A ECD-Fc (Fc fusion)
chain: VIHVTKEVKEVATLSCGHNVSVEELAQTRIYWQKEKKMVLTMMPGDMNIWPEYKNRTIFDITNNLSIVIQALRPSDEGTYECVVLKYEKDGFKREHLAEVTLSVKADFPTPSISDFEIPTSNIRRIICSASGGFPEPHLSWLENGEELNAINTTVSQDPETELYAVSSKLDFNMTTNHSFMCLIKYGHLRVNQTFNWNTTKQEHFPDN
B11: CD80 K37E/F59S/L70Q/A91G/T120S/T130A ECD-Fc (SEQ ID NO 1397) (Fc fusion)
chain: VIHVTKEVKEVATLSCGHNVSVEELAQTRIYWQKEKEMVLTMMSGDMNIWPEYKNRTISDITNNLSIVIQALRPSDEGTYECVVLKYEKDGFKREHLAEVTLSVKADFPTPSISDFEVPSSNIRRIICSASGGFPEPHLSWLENGEELNAINTTVSQDPETELYAVSSKLDFNMTTNHSFMCLIEYGHLRVNQTFNWNTTKQEHFPDN
B12: CD80 A91G/S103P ECD-Fc (Fc fusion)
chain: VIHVTKEVKEVATLSCGHNVSVEELAQTRIYWQKEKKMVLTMMSGDMNIWPEYKNRTIFDITNNLSIVILALRPSDEGTYECVVLKYEKDGFKREHLAEVTLPVKADFPTPSISDFEIPTSNIRRIICSTSGGFPEPHLSWLENGEELNAINTTVSQDPETELYAVSSKLDFNMTTNHSFMCLIKYGHLRVNQTFNWNTTKQEHFPDN
B13: CD80 A91G/L102S ECD-Fc (Fc fusion)
chain: VIHVTKEVKEVATLSCGHNVSVEELAQTRIYWQKEKKMVLTMMSGDMNIWPEYKNRTIFDITNNLSIVILALRPSDEGTYECVVLKYEKDGFKREHLAEVTSSVKADFPTPSISDFEIPTSNIRRIICSTSGGFPEPHLSWLENGEELNAINTTVSQDPETELYAVSSKLDFNMTTNHSFMCLIKYGHLRVNQTFNWNTTKQEHFPDN
B14: CD80 I67T/L70Q/A91G/I118V/T120S ECD-Fc (Fc fusion)
chain: VIHVTKEVKEVATLSCGHNVSVEELAQTRIYWQKEKKMVLTMMSGDMNIWPEYKNRTIFDITNNLSTVIQALRPSDEGTYECVVLKYEKDGFKREHLAEVTLSVKADFPTPSISDFEVPSSNIRRIICSTSGGFPEPHLSWLENGEELNAINTTVSQDPETELYAVSSKLDFNMTTNHSFMCLIKYGHLRVNQTFHWNTTKQEHFPDN
B15: variant CD80 IgV-Fc H18Y/E35D/V68M/L97Q (Fc fusion)
chain: VIHVTKEVKEVATLSCGYNVSVEELAQTRIYWQKDKKMVLTMMSGDMNIWPEYKNRTIFDITNNLSIMILALRPSDEGTYECVVLKYEKDAFKREHQAEVTLSVKAD
B16: variant CD80 IgV-Fc Q33L/E35D/M47L/V68M/L85Q/E88D (Fc fusion)
chain: VIHVTKEVKEVATLSCGHNVSVEELAQTRIYWLKDKKMVLTMMSGDLNIWPEYKNRTIFDITNNLSIMILALRPSDEGTYECVVQKYDKDAFKREHLAEVTLSVKAD
B17: variant CD80 IgV-Fc Q33L/E35D/M43V/M47I/A71G (Fc fusion)
chain: VIHVTKEVKEVATLSCGHNVSVEELAQTRIYWLKDKKMVLTMVSGDINIWPEYKNRTIFDITNNLSIVILGLRPSDEGTYECVVLKYEKDAFKREHLAEVTLSVKAD
B18: variant CD80 IgV-Fc E35D/M47V/A71G/L85M/L97Q (Fc fusion)
chain: VIHVTKEVKEVATLSCGHNVSVEELAQTRIYWQKDKKMVLTMMSGDVNIWPEYKNRTIFDITNNLSIVILGLRPSDEGTYECVVMKYEKDAFKREHQAEVTLSVKAD
B19: variant CD80 IgV-Fc H18Y/Y31H/E35D/M47V/A71G/L85Q (Fc fusion)
chain: VIHVTKEVKEVATLSCGYNVSVEELAQTRIHWQKDKKMVLTMMSGDVNIWPEYKNRTIFDITNNLSIVILGLRPSDEGTYECVVQKYEKDAFKREHLAEVTLSVKAD
B20: variant CD80 IgV-Fc E35D/D46E/M47V/L97Q (Fc fusion)
chain: VIHVTKEVKEVATLSCGHNVSVEELAQTRIYWQKDKKMVLTMMSGEVNIWPEYKNRTIFDITNNLSIVILALRPSDEGTYECVVLKYEKDAFKREHQAEVTLSVKAD
B21: variant CD80 IgV-Fc Q33L/E35D/N48K/L85Q/L97Q (Fc fusion)
chain: VIHVTKEVKEVATLSCGHNVSVEELAQTRIYWLKDKKMVLTMMSGDMKIWPEYKNRTIFDITNNLSIVILALRPSDEGTYECVVQKYEKDAFKREHQAEVTLSVKAD

What was measured:
human PD-L1 (human) [1] = target: human PD-L1 (human) (UniProt Q9NZQ7); assay: flow cytometry, CHO cells expressing huPD-L1
Sequence of human PD-L1 (human) (Q9NZQ7 19-290): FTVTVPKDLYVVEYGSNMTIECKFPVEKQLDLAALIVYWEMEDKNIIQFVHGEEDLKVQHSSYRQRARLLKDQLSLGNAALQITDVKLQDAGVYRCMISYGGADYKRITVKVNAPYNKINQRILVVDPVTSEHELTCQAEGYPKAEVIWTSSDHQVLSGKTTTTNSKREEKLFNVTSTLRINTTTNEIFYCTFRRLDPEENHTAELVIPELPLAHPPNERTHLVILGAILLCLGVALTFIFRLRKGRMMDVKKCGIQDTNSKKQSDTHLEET

human CTLA-4 (human) [2] = target: human CTLA-4 (human) (UniProt P16410); assay: flow cytometry, CHO cells expressing huCTLA-4
Sequence of human CTLA-4 (human) (P16410 36-223): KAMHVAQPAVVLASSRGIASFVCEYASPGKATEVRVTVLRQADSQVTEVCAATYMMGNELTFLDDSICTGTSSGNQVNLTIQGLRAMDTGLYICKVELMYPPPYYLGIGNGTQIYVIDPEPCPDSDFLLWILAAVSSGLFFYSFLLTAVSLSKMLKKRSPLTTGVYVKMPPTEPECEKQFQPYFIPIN

CD28 (human) [3] = target: CD28 (human) (UniProt P10747); assay: flow cytometry, Jurkat/IL2 reporter cells (CD28)
CD28 (human) [4] = target: CD28 (human) (UniProt P10747); assay: flow cytometry, Expi293F cells transfected with CD28
human PD-L1 (human) [5] = target: human PD-L1 (human) (UniProt Q9NZQ7); assay: flow cytometry, Expi293F cells transfected with PD-L1
human CTLA-4 (human) [6] = target: human CTLA-4 (human) (UniProt P16410); assay: flow cytometry, Expi293F cells transfected with CTLA-4
human CTLA-4 (human) [7] = target: human CTLA-4 (human) (UniProt P16410); assay: flow cytometry, CHO cells expressing huCTLA4
CD28 (human) [8] = target: CD28 (human) (UniProt P10747); assay: flow cytometry, Jurkat/IL2 reporter cells (endogenous CD28)
human CTLA-4 (human) [9] = target: human CTLA-4 (human) (UniProt P16410); assay: flow cytometry, CHO cells expressing huCTLA4; MFI ratio to WT CD80 ECD-Fc (R&D)
human PD-L1 (human) [10] = target: human PD-L1 (human) (UniProt Q9NZQ7); assay: flow cytometry, CHO cells expressing huPD-L1; MFI ratio to WT CD80 ECD-Fc (R&D)
human PD-L1 (human) [11] = target: human PD-L1 (human) (UniProt Q9NZQ7); assay: flow cytometry; binding to PD-L1 cells against binding of the same variant to CD28 cells
CD28 (human) [12] = target: CD28 (human) (UniProt P10747); assay: flow cytometry, Jurkat/IL2 reporter cells (endogenous CD28); MFI ratio to WT CD80 ECD-Fc (R&D)

Row | Binder | MFI at 33.3 nM (human PD-L1 (human) [1]) [MFI] | MFI at 33.3 nM (human CTLA-4 (human) [2]) [MFI] | MFI at 33.3 nM (human CTLA-4 (human) [7]) [MFI] | MFI at 33.3 nM (CD28 (human) [8]) [MFI] | Fold change to WT CD80 (human CTLA-4 (human) [9]) [fold] | Fold change to WT (human PD-L1 (human) [10]) [fold] | Ratio of PDL1:CD28 (human PD-L1 (human) [11]) | Fold change to WT (CD28 (human) [12]) [fold] | also measured
1 | B1 | 7530 | 48000 |  |  |  |  |  |  | MFI at 33.3 nM (CD28 (human) [3]): 411 MFI
2 | B2 | 7990 | 45000 |  |  |  |  |  |  | 
3 | B3 | 26100 | 31200 |  |  |  |  |  |  | 
4 | B4 | 4040 | 48000 |  |  |  |  |  |  | MFI at 33.3 nM (CD28 (human) [3]): 196 MFI
5 | B5 | 4850 | 47400 |  |  |  |  |  |  | 
6 | B6 |  | 33600 |  |  |  |  |  |  | MFI at 33.3 nM (CD28 (human) [3]): 642 MFI
7 | B7 | 23500 | 32900 |  |  |  |  |  |  | 
8 | B8 | 21800 | 29500 |  |  |  |  |  |  | 
9 | B9 |  |  |  |  |  |  |  |  | MFI (CD28 (human) [4]): 89 MFI; parental ratio (CD28 (human) [4]): 0.94; MFI (human PD-L1 (human) [5]): 6 MFI; parental ratio (human PD-L1 (human) [5]): 0.09; MFI (human CTLA-4 (human) [6]): 263 MFI; parental ratio (human CTLA-4 (human) [6]): 1.26
10 | B10 |  |  |  |  |  |  |  |  | MFI (CD28 (human) [4]): 88 MFI; parental ratio (CD28 (human) [4]): 0.92; MFI (human PD-L1 (human) [5]): 5 MFI; parental ratio (human PD-L1 (human) [5]): 0.07; MFI (human CTLA-4 (human) [6]): 134 MFI; parental ratio (human CTLA-4 (human) [6]): 0.64
11 | B11 |  |  |  |  |  |  |  |  | MFI (CD28 (human) [4]): 20 MFI; parental ratio (CD28 (human) [4]): 0.21; MFI (human PD-L1 (human) [5]): 6 MFI; parental ratio (human PD-L1 (human) [5]): 0.08; MFI (human CTLA-4 (human) [6]): 74 MFI; parental ratio (human CTLA-4 (human) [6]): 0.36
12 | B12 |  |  |  |  |  |  |  |  | MFI (CD28 (human) [4]): 39 MFI; parental ratio (CD28 (human) [4]): 0.41; MFI (human PD-L1 (human) [5]): 9 MFI; parental ratio (human PD-L1 (human) [5]): 0.13
13 | B13 |  |  |  |  |  |  |  |  | MFI (CD28 (human) [4]): 6 MFI; parental ratio (CD28 (human) [4]): 0.06; MFI (human PD-L1 (human) [5]): 5 MFI; parental ratio (human PD-L1 (human) [5]): 0.08; MFI (human CTLA-4 (human) [6]): 6 MFI; parental ratio (human CTLA-4 (human) [6]): 0.03
14 | B14 |  |  |  |  |  |  |  |  | MFI (CD28 (human) [4]): 98 MFI; parental ratio (CD28 (human) [4]): 1.03; MFI (human PD-L1 (human) [5]): 5 MFI; parental ratio (human PD-L1 (human) [5]): 0.08; MFI (human CTLA-4 (human) [6]): 160 MFI; parental ratio (human CTLA-4 (human) [6]): 0.77
15 | B15 | 122000 |  | 173000 | 299 | 0.97 | 15.3 | 407 | 0.04 | 
16 | B16 | 126000 |  | 3530 | 264 | 0.02 | 15.8 | 476 | 0.03 | 
17 | B17 | 78000 |  | 14000 | 284 | 0.08 | 9.82 | 275 | 0.04 | 
18 | B18 | 61700 |  | 239000 | 339 | 1.34 | 7.77 | 182 | 0.04 | 
19 | B19 | 76400 |  | 3840 | 268 | 0.02 | 9.61 | 285 | 0.04 | 
20 | B20 | 19500 |  | 305000 | 371 | 1.71 | 2.45 | 52 | 0.05 | 
21 | B21 | 45200 |  | 1180 | 279 | 0.01 | 5.69 | 162 | 0.04 | 
